The text below walks through data of publication doi:10.1101/2021.01.27.428421.

The target of the test is tdPCP-GFP-VPR (PP7 (from the protein's name) | not stated). Briefly: fluorescence intensity at the reporter gene array in cells.

tdPCP-GFP-VPR returned a fold signal at the reporter array against tdPCP-GFP-VP16 of 1.9 fold.
